± gives the uncertainty stated by the source.
B1: Homeobox protein cut-like 2, residues 895 to 963; numbered along this chain, O14529 (parent)
chain: EVDTLELTRQVKEKLAKNGICQRIFGEKVLGLSQGSVSDMLSRPKPWSKLTQKGREPFIRMQLWLSDQL

Variants of: B1
Assay: abundance fitness (aPCA) (normalised: wild type 0, dead -1); higher = more abundant; growth selection in yeast, the domain comes from the species named
Details: Homo sapiens

Variant | abundance fitness
K12N | -0.27 ± 0.086
K12P | -0.244 ± 0.06
K12Y | -0.528 ± 0.058
I59P | -0.937 ± 0.043
E1L | -0.3 ± 0.045
E1S | -0.063 ± 0.12
P46S | -0.093 ± 0.027
R60C | -0.681 ± 0.27
R60D | -0.905 ± 0.36
T8L | -0.157 ± 0.026
T8V | 0.041 ± 0.032
T8R | -0.136 ± 0.029
T8H | -0.19 ± 0.046
T8E | -0.242 ± 0.045
R23N | 0.038 ± 0.13
V37N | -0.435 ± 0.1
V37H | -0.378 ± 0.048
V37S | -0.232 ± 0.032
V37C | -0.031 ± 0.038
K14Y | -0.045 ± 0.068
K14H | -0.009 ± 0.062
D67S | -0.082 ± 0.042
W64I | -1.19 ± 0.25
P57D | -0.085 ± 0.17

Variant | abundance fitness
P57I | 0.044 ± 0.041
P57R | -0.081 ± 0.055
P57Y | 0.027 ± 0.052
P57E | -0.139 ± 0.1
P57Q | -0.036 ± 0.038
P57T | 0.017 ± 0.033
G54W | -0.097 ± 0.043
G54K | -0.461 ± 0.062
G54I | 0.046 ± 0.049
G54C | -0.007 ± 0.043
V29I | 0.124 ± 0.051
V29P | -0.345 ± 0.042
L41P | -0.257 ± 0.032
L41G | -0.107 ± 0.11
L41D | -0.353 ± 0.18
L41K | -0.193 ± 0.032
L41A | -0.223 ± 0.079
L41I | -0.315 ± 0.056
Q62F | -0.69 ± 0.14
Q62I | -0.277 ± 0.11
R55M | -0.385 ± 0.044
R55F | -0.569 ± 0.06
R55C | -0.625 ± 0.12
L32K | -0.169 ± 0.056

Variant | abundance fitness
L32F | -0.141 ± 0.028
L32A | -0.279 ± 0.078
G35M | -0.098 ± 0.036
G35E | 0.135 ± 0.045
T4P | -0.179 ± 0.039
S36G | -0.34 ± 0.089
Q22I | -0.223 ± 0.1
Q22P | -0.073 ± 0.06
Q22T | -0.151 ± 0.059
A16L | -0.109 ± 0.028
A16R | 0.036 ± 0.031
A16K | 0.001 ± 0.051
A16E | -0.1 ± 0.044
A16P | -0.18 ± 0.038
Q10K | 0.07 ± 0.036
Q10C | -0.343 ± 0.082
Q10V | -0.164 ± 0.043
M61F | -0.157 ± 0.072
M61A | -0.093 ± 0.041
M61E | -1.02 ± 0.17
M61K | -1.05 ± 0.16
M61S | -0.606 ± 0.037
D39E | 0.029 ± 0.31
S38E | 0.106 ± 0.036

Variant | abundance fitness
S38K | 0.06 ± 0.024
S38A | 0.015 ± 0.028
S38D | 0.007 ± 0.048
L63Q | 0.078 ± 0.038
L63K | 0.113 ± 0.063
T51G | -0.145 ± 0.14
T51K | -0.115 ± 0.037
V2R | -0.041 ± 0.052
V2S | -0.019 ± 0.033
V2N | -0.136 ± 0.077
V2D | -0.301 ± 0.072
V11D | -0.065 ± 0.073
V11H | -0.23 ± 0.07
L7T | -0.077 ± 0.041
S66E | -0.069 ± 0.077
S66L | -0.104 ± 0.024
S66G | 0.048 ± 0.073
L69A | -0.164 ± 0.07
L69K | -0.041 ± 0.064
E13F | -0.182 ± 0.034
E56I | 0.096 ± 0.095
E56N | -0.348 ± 0.14
E56D | -0.186 ± 0.12
E27K | 0.001 ± 0.032

Variant | abundance fitness
E27F | -0.173 ± 0.031
E27M | -0.14 ± 0.027
P44D | -0.429 ± 0.099
P44Y | -0.041 ± 0.057
P44E | -0.665 ± 0.075
P44H | -0.241 ± 0.05
P44R | -0.03 ± 0.042
F58I | -0.596 ± 0.14
F58K | -1.11 ± 0.18
G26I | -0.284 ± 0.05
G26Q | -0.584 ± 0.12
G26H | -0.525 ± 0.12
G26V | -0.263 ± 0.037
G26T | -0.221 ± 0.063
L30T | -0.536 ± 0.11
I20P | -0.226 ± 0.042
I20M | -0.023 ± 0.037
I20V | -0.201 ± 0.036
I20H | -0.382 ± 0.052
M40P | -0.251 ± 0.037
M40R | -0.145 ± 0.038
M40Y | -0.236 ± 0.11
Q68E | -0.014 ± 0.039
Q68W | -0.087 ± 0.037

Variant | abundance fitness
Q52T | 0.046 ± 0.042
K28H | -0.128 ± 0.054
K28I | -0.502 ± 0.055
K28R | -0.1 ± 0.032
R9T | -0.135 ± 0.047
G31P | -0.378 ± 0.038
G31C | -0.257 ± 0.044
K53C | -0.405 ± 0.16
K53S | 0.04 ± 0.047
L65N | -0.973 ± 0.082
L65R | -0.782 ± 0.055
L65M | -0.294 ± 0.034
S33Q | -0.027 ± 0.049
S33M | 0.053 ± 0.05
S33L | -0.057 ± 0.03
D3Y | -0.358 ± 0.047
D3M | -0.163 ± 0.027
D3F | -0.139 ± 0.047
D3G | -0.253 ± 0.033
Q34L | -0.003 ± 0.028
Q34F | 0.003 ± 0.04
Q34G | 0.434 ± 0.23
C21H | -0.029 ± 0.081
C21V | -0.174 ± 0.041

Variant | abundance fitness
C21F | -0.094 ± 0.15
N18R | 0.013 ± 0.035
N18V | -0.075 ± 0.043
K17V | -0.169 ± 0.027
K17F | -0.267 ± 0.056
E6I | -0.196 ± 0.077
K45A | -0.129 ± 0.11
K45V | -0.083 ± 0.034
R43Y | 0.017 ± 0.078
R43V | -0.23 ± 0.037
L50A | -0.748 ± 0.049
L50C | -0.488 ± 0.092
S42C | -0.004 ± 0.092
S42E | 0.059 ± 0.095
W47Y | -0.554 ± 0.063
W47D | -0.772 ± 0.088
W47E | -1.08 ± 0.14
I24C | -0.243 ± 0.042
I24H | 0.007 ± 0.085
I24E | 0.278 ± 0.046
G19S | -0.01 ± 0.062
G19E | -0.46 ± 0.092
G19A | -0.32 ± 0.095

From the Human Domainome abundance scans (Beltran et al. 2025)
